According to US20040186051A1 (Genentech, published 2004):

Target: T1, DR4 receptor (human, UniProt O00220 24-239, limits assumed)
T1 construct: The construct used in the ELISA is not described
Test: receptor binding ELISA

T1 sequence (O00220 24-239 H141R/R209T limits assumed): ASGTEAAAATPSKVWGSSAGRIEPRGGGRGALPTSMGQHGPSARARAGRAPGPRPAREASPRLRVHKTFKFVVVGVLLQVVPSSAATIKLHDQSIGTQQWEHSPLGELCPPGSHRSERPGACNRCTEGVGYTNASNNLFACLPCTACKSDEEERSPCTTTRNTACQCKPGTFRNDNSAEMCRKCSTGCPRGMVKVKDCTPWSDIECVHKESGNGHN

| Binder | EC50 [µg/mL] |
| --- | --- |
| PEG-R170C-Apo2L.0(32176-78) (ligand, Cys170 either carries methoxy-PEG-maleimide, MW 2,000 D, or is in a disulfide bond with Cys170 of another trimer; rest blocked with iodoacetamide, the number of chains is therefore not one value; also called partially PEGylated and disulfide crosslinked R170C-Apo2L.0; PEG-R170C-Apo2L.0 lot 32176-78) VRERGPQRVAAHITGTRGRSNTLSSPNSKNEKALGRKINSWESSRSGHSFLSNLHLCNGELVIHEKGFYYIYSQTYFRFQEEIKENTKNDKQMVQYIYKYTSYPDPILLMKSARNSCWSKDAEYGLYSIYQGGIFELKENDRIFVSVTNEHLIDMDHEASFFGAFLVG | 0.0045 |
| PEG-R170C-Apo2L.0 (32176-87C) (ligand, methoxy-PEG-maleimide, MW 2,000 D, on Cys170 (one PEG per monomer); residual unpegylated Cys170 carboxyamidomethylated with iodoacetamide, also called PEG-2K-R170C-Apo2L.0; R170C-PEG-2K) VRERGPQRVAAHITGTRGRSNTLSSPNSKNEKALGRKINSWESSRSGHSFLSNLHLCNGELVIHEKGFYYIYSQTYFRFQEEIKENTKNDKQMVQYIYKYTSYPDPILLMKSARNSCWSKDAEYGLYSIYQGGIFELKENDRIFVSVTNEHLIDMDHEASFFGAFLVG | 0.0422 |
